Source: US20240400689A1 (ANTENGENE BIOLOGICS, published 2024)

T1: mouse CD276 protein (mouse, UniProt Q8VE98 29-316)
T1 construct: whole, on cells; also called mCD276; CHO-S-mCD276
T1 sequence (looked up): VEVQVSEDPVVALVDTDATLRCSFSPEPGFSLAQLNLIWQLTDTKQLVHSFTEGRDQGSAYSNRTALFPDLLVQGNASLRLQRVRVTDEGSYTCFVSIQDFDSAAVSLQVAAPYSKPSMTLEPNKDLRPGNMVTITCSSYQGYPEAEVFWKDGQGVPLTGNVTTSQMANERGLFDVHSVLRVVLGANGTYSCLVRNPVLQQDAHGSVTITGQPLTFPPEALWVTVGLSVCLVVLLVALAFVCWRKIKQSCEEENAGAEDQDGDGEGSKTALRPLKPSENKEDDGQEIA

T2: human CD276 protein (human, UniProt Q5ZPR3 29-534)
T2 construct: whole, on cells; for SKOV3 and the other cancer lines the protein is the cells' own; also called B7-H3; B7H3
T2 sequence (looked up): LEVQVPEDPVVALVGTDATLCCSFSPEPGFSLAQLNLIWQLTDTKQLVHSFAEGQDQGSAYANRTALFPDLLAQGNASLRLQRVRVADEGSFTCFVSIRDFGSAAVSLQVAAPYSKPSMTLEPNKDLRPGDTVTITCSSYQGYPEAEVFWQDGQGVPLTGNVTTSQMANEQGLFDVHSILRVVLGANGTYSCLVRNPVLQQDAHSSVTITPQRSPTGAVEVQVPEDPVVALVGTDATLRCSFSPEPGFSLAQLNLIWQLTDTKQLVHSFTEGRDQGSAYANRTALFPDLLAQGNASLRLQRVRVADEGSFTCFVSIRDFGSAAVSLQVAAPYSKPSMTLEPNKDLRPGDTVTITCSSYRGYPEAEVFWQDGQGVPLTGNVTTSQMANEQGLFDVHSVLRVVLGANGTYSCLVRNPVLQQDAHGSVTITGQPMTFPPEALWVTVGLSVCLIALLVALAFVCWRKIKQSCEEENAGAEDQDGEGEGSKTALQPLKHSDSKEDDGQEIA


What was measured:
[1] = target: T3, Macaca fascicularis CD276 (Macaca fascicularis); assay: FACS on CHO-S-cynoCD276 cells
T3 construct: whole, on cells; also called cynomolgus monkey CD276; cynoCD276
Protocol: (§1) Screening & Expansion—The subcloning plates were screened by protein or cell-based Elisa, and the subclones with good binding ability were expanded to 24-wells for confirmation tests. The specificity and cross-reactivity of these subclones were confirmed with FACS analysis. Briefly, parental CHO-S cells, CHO-S-hCD276, CHO-S cell line stably over-expressing Macaca fascicularis CD276, CHO-K1 S, cell line stably over-expressing mouse CD276 were incubated with antibodies produced by each subclone respectively. Fluorescent dye-conjugated secondary antibody was used to detect the binding of the primary antibody with the cells. Median fluorescence intensity was measured by FACS analysis.

mouse CD276 protein = target: T1, mouse CD276 protein; assay: FACS on CHO-S-mCD276 cells
Protocol: as §1

human CD276 protein [2] = target: T2, human CD276 protein; assay: FACS on CHO-S-hCD276 cells
Protocol: as §1

human CD276 protein [3] = target: T2, human CD276 protein; assay: cell-based or functional assay

Binder | FACS MFI [1] | FACS MFI (mouse CD276 protein) | FACS MFI (human CD276 protein [2]) | EC50 of antibody induced ADCC effect on SKOV3 (human CD276 protein [3]) [µg/mL]
23-F10-G4-F11 (antibody, V domains shown, mouse monoclonal antibody (hybridoma)) VH: EVQLQESGPDLVRPGALVKLSCKSSGFNIKDYPIHWVRQRPEQGLEWIGWFDPDNGNVIYDPRFQGKASITADTSSNTAYLQLNSLTSEDTAVYYCSSPYGAMDYWGQGTSVTVSS VL: QIVLTQSPEIMSASPGEKVTMTCSASSSVSYIHWYQQKSGTSPKRWIYDTSKLASGVPARFSGSGSGTSYSLTIRSMEAEDAATYYCQQGSSNPRTFGGGTKLEIK | 36700 | 1300 | 127000 | 
6-D8-E7-A11 (antibody, V domains shown, mouse monoclonal antibody (hybridoma)) VH: QVHLQQPGAELVKPGASVKLSCKASGYTFTNYWMHWVKRRPGQGLEWIGMIHPNSGTTSFNEKFKSKATLTVDKSSSTAYMQLSSLTSEDSAVYYCAGYYGSSFSWFTYWGQGTLVTVSA VL: QAVVTQESALTTSPGGTVILTCRSSTGAVTTSNFANWVQEKPDHLFTGLIGGTSNRAPGVPVRFSGSLIGDKAALTITGAQTEDDAMYFCALWYSTHYVFGGGTKVTVL | 101000 | 92600 | 37900 | 
16-C6-F7-F5 (antibody, V domains shown, mouse monoclonal antibody (hybridoma)) VH: QIQLVQSGPEVKKPGETVKISCKASGYTFTKYGINWVKQAPGEGLKWMGWIWTYTGKPTYGDDFKGRFAFSLETSASTAYLQISDLKIEDMATYFCARDDGYYYTMNYWGQGTSVTVSS VL: DIVMTQTPLSLPVSLGDQASISCRSSQSLLHTNGDTYLHWYLQKAGQPPKLLIYKVSNRFSGVPDRFSGSGSGTDFTLKISRVEAEDLGVYFCSQSTHIPWTFGGGTKLEIK | 19500 | 1830 | 141000 | 
16-G3-D10-C10 (antibody, V domains shown, mouse monoclonal antibody (hybridoma)) VH: QIQLVQSGPELKKPGETVKISCKASGYTFRNYGMNWVKQGPGKDLKWMGWINPYTGEPTYIGDFKGRFAFSLETSANSAYLQINNLNNEDMATYFCARDDGYWYTMDYWGQGTSVTVSS VL: DVVMTQTPPSLPVSLGDQASIPCRSSQSLVHSNGITYLHWYLQKPGQSPKLLIYKVSNRFSGVPDRFSGSGSGTDFTLKISRVEAEDLGVYFCSQSTHVPWTFGGGTKLEIK | 6190 | 1320 | 23200 | 
11-G10-B4-B11 (antibody, V domains shown, mouse monoclonal antibody (hybridoma)) VH: DVQLQESGPGLVKPSQSLSLTCTVTGYSITSDYAWNWIRQFPGNKLEWMGYISYSGSTSYNPSLKSRISITRDTSKNQFFLQLNSVTTEDTATYYCARGGPWFAYWGQGTLVTVSA VL: DVVMTQTPLSLPVSLGDQASISCRSSQSLVHSNGNTYLHWYLQKPGQSPKLLIYKVSNRFSGVPDRFSGSGSGTDFTLKISRVEAEDLGVYFCSQSTHVPFTFGSGTKLEIK | 26400 | 2800 | 32800 | 
26-D2-D6-B12 (antibody, V domains shown, mouse monoclonal antibody (hybridoma)) VH: QIQLVQSGPELKKPGETVKISCKASGYIFRNYGMNWVKQAPGKGLKWMGWINSYTGKPTYVDDFKGRFAFSLETSASTAYLQINNLKNEDMATYFCARDDGYWYTMDYWGQGTSVTVSS VL: DVVMTQTPLSLPVSLGDQASISCRSSQSLVHSNGHTYLHWYLQKPGQSPKLLIYKVSNRFSGVPDRFSGSGSGTDFTLKISRVEAEDLGVYFCSQSTHVPWTFGGGTKLEIK | 63100 | 1310 | 47500 | 
22-E11-C3-F2 (antibody, V domains shown, mouse monoclonal antibody (hybridoma)) VH: QIQLVQSGPELKRPGETVKISCKASGYSFTNYGMNWVKQAPGKGLKWMGWINPYTGEPTYADDFKGRFAMSLETSASAAYLQINNLKNEDMATYFCGRDDGYHYTMNYWGQGTSVTVSS VL: DVVMTQPPLSLPVSLGDQASISCRSSQSLIHSNGDTYLHWYLQKPGQSPKLLIYKVSIRFSGVPDRFSGSGSGTDFTLKISRVEAEDLGVYFCSQSTYVPWTFGGGTKLEIK | 56500 | 1670 | 74300 | 
21-B3-B1-H5 (antibody, V domains shown, mouse monoclonal antibody (hybridoma)) VH: QIQLVQSGPELKKPGETVKISCKASGYIFRNYGMNWVKQAPGKGLKWMGWINSYTGKPTYVDDFKGRFAFSLETSASTAYLQINNLKNEDMATYFCARDDGYWYTMDYWGQGTSVTVSS VL: DVVMTQTPLSLPVSLGDQASISCRSSQSLVHSNGHTYLHWYLQKPGQSPKLLIYKVSNRFSGVPDRFSGSGSGTDFTLKISRVEAEDLGVYFCSQSTHVPWTFGGGTKLEIK | 20200 | 1340 | 71500 | 
11-C12-F4-F6 (antibody, V domains shown, mouse monoclonal antibody (hybridoma)) VH: QIQLVQSGPELKKPGETVKISCKASGYTFRNFGMNWVKQGPGKGLKWMGWINPYTGEPTYVGDFKGRFAFSLETSASTAYLQINNLKNEDMATYFCARDDGYWYTMDYWGQGTSVTVSS VL: DVVMTQTPPSLPVSLGDQASIPCRSSQSLVHSNGITYLHWYLQKPGQSPKLLIYKVSNRFSGVPDRFSGSGSGTDFTLKISRVEAEDLGVYFCSQSTHVPWTFGGGTKLEIK | 5140 | 1340 | 41900 | 
3-F2-E7-F9 (antibody, V domains shown, mouse monoclonal antibody (hybridoma)) VH: QVQLQQSGPELVRPGVSVKISCKGSGYTFTDYTMHWVKESHAKSLEWIGVISTYYGNTNYNQKFKGKATLTVDKSSSTAYMELAGLTSEDSAIYYCARASYGSGYGPYYWYFDVWGAGTTVTVSS VL: DIQMTQSPASLFASVGETVTITCRASEKIYSYLAWYFQKQGKSPQFLVYNANALAEGVPSRFSGSGSGTQFSLKINSLQPEDFGTYYCQHHYGTPVTFGAGSKLELK | 35700 | 1140 | 52300 | 
20-A2-D10-G8 (antibody, V domains shown, mouse monoclonal antibody (hybridoma)) VH: QVQLQQSGPELVRPGVSVKISCKGSGYTFTDYTMHWVKESHAQSLEWIGVISTYYGNTNYNQNFKGKATLTVDKSSSTAYMELAGLTSEDSAIYYCARASYGSGYGPYYWYFDVWGAGTTVTVSS VL: DIQMTQSPASLFASVGETVTITCRASEKIYSYLAWYFQKQGKSPQFLVYNANALAEGVPSRFSGSGSGTQFSLKIKSLQPEDFGTYYCQHHYGSPVTFGAGSKLELK | 9020 | 1260 | 77100 | 
24-C10-F9-G7 (antibody, V domains shown, mouse monoclonal antibody (hybridoma)) VH: EVQLQESGPELVRPGVSVKISCKGSGYTFTDHTMHWVKESHAQSLEWIGVISTYYGNTNYNQNFKGKATLTVDKSSSTAYMELAGLTSEDSAIYYCARASYGSGYGPYYWYFDVWGAGTTVTVSS VL: DIQMTQSPASLFASVGETVTITCRASEKIYSYLAWYFQKQGKSPQFLVYNANALAEGVPSRFSGSGSGTQFSLKINSLQPEDFGTYYCQHHYGTPVTFGAGSKLELK | 15200 | 1180 | 85100 | 
5-D1-G6-D9 (human IgG1 chimeric antibody) (antibody, V domains shown) VH: EVQLQESGAELVKPGASVKLSCKTSGLTFSTNYISWLKQKPGQSLEWIAWIYGGNGGTSYNQRFTGKAQLTVDTSSSTAYMQFSSLTTEDSAIYYCTSHDYYGGPMDYWGQGTSVTVSS VL: DIQMTQTTSSLSASLGDRVTISCRASQDISNYLNWYQQKPDGTVKLLIYFTSRLHSGVPSRFSASGSGTDYSLTISNLEQEDIATYFCQQTNTLPWTFGGGTKLEIK |  |  |  | 1.55
5-D1-G6-D9 (antibody, V domains shown, mouse monoclonal antibody (hybridoma)) VH: EVQLQESGAELVKPGASVKLSCKTSGLTFSTNYISWLKQKPGQSLEWIAWIYGGNGGTSYNQRFTGKAQLTVDTSSSTAYMQFSSLTTEDSAIYYCTSHDYYGGPMDYWGQGTSVTVSS VL: DIQMTQTTSSLSASLGDRVTISCRASQDISNYLNWYQQKPDGTVKLLIYFTSRLHSGVPSRFSASGSGTDYSLTISNLEQEDIATYFCQQTNTLPWTFGGGTKLEIK | 62200 | 1530 | 45300 | 
